Test results from patent publication US20020137138A1.

Biological target: human short form of the 5-HT3-A receptor (Genbank accession #D49394) (human) (UniProt P46098)
Experiment: cell-based or functional assay

Sequence of human short form of the 5-HT3-A receptor (Genbank accession #D49394) (human) (P46098 24-478): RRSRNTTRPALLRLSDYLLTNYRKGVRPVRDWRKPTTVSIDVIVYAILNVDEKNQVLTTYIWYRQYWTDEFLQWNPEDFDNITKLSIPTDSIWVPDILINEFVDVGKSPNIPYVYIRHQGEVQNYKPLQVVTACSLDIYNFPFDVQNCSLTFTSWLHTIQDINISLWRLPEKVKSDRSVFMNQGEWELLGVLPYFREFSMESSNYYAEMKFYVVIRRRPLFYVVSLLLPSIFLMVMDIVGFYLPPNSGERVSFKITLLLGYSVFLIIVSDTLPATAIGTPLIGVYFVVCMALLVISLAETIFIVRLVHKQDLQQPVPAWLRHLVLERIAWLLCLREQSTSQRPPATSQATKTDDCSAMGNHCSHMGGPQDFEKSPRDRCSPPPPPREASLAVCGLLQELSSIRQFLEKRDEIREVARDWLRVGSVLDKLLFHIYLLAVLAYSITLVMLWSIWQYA

5-HT response, oocytes at a 1.8x fold 5-HT3-C to 5-HT3-A cRNA concentration: 20 % diminished
peak current to 5-HT, oocytes injected with 5-HT3-C and 5-HT3-A(short) at a ratio of 2:1: -0.028 nA
peak response to 10 µM 5-HT (two-electrode voltage clamp, Xenopus oocytes co-injected with 2-fold more 5-HT3-C cRNA, 0.67 ng): 10 % of control
response to 10 µM 5-HT, oocytes injected with 5-HT3-C:5-HT3-A(short) at 10:1 (3.35 ng : 0.33 ng cRNA): -0.01 nA
Substance: human 5-HT3-C (human serotonin 5-HT3 receptor modifier subunit 5-HT3-C) (from UniProt Q8WXA8 28-447)
